Experiments:
[1] = molecular target: human CD33 on tumor cells (A549.CD33; A549 electroporated with CD33 mRNA; HL-60, Kasumi1, OCI-AML3) (human, UniProt P20138 18-364); test: cell-based or functional assay
[2] = molecular target: MAGEA4 peptide presented by HLA-A2 on tumor cells (A549 transduced with MAGEA4 and HLA-A2; A549 pulsed with …); test: cell-based or functional assay
[3] = molecular target: T1, His labeled CD33-Fc reagent (Acros) (UniProt P20138 18-259); test: flow cytometry; CD33-Fc staining of transduced T cells, APC labeled streptavidin secondary
T1 construct: Secondary staining was with APC labeled streptavidin; not shown: Fc part and His label of the bought reagent
T1 sequence (P20138 18-259): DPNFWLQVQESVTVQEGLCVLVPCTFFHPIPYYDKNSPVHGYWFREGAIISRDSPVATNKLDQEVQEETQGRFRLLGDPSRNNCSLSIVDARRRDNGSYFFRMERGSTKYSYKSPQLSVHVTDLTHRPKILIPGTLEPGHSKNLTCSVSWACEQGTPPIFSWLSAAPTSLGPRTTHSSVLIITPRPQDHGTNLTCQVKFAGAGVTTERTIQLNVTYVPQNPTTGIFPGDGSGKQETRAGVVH

Sequence of human CD33 on tumor cells (A549.CD33; A549 electroporated with CD33 mRNA; HL-60, Kasumi1, OCI-AML3) (P20138 18-364): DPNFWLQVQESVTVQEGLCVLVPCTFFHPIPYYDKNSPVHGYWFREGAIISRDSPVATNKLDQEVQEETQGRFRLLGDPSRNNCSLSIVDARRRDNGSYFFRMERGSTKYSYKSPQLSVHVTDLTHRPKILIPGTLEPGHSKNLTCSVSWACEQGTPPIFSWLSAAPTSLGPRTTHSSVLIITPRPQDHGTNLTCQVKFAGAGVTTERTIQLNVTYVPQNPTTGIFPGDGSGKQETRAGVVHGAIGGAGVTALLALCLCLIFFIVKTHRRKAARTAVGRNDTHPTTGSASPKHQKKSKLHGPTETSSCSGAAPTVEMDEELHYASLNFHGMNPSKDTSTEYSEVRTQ

| interferon gamma production [1] [fold] | interferon gamma production [2] [fold] | binding result [3] | Binder |
| --- | --- | --- | --- |
|  |  | binds | VHH-TCR with a VHH added to the TRA separated by a 1xG4S; TRB-P2A-CD33.VHH-1xG4S-TRA (SEQ ID NO: 95) (TCR, also called VHH-TCR with 1G4S; VHH-TCR with one G4S) TCR beta: DSGVTQTPKHLITATGQRVTLRCSPRSGDLSVYWYQQSLDQGLQFLIQYYNGEERAKGNILERFSAQQFPDLHSELNLSSLELGDSALYFCASSGGDGDEQFFGPGTRLTVLEDLKNVFPPEVAVFEPSKAEIAHTQKATLVCLATGFYPDHVELSWWVNGKEVHSGVSTDPQPLKEQPALNDSRYCLSSRLRVSATFWQNPRNHFRCQVQFYGLSENDEWTQDRAKPVTQIVSAEAWGRADCGITSASYHQGVLSATILYEILLGKATLYAVLVSALVLMAMVKRKDSRG TCR alpha: EVQLVESGGGEVQPGGSLRLSCAASRSSGIDVMGWYRQAPGKERELVAEISGVGDTNYAASLADRFTVSRDNAKNTVYLQMSSLRAEDTAVYYCNAHSFLDLVGAWGQGTLVTVKPGGGGSAQKITQTQPGMFVQEKEAVTLDCTYDTSDPSYGLFWYKQPSSGEMIFLIYQGSYDQQNATEGRYSLNFQKARKSANLVISASQLGDSAMYFCAMSGGYTGGFKTIFGAGTRLFVKANIQNPDPAVYQLRDSKSSDKSVCLFTDFDSQTNVSQSKDSDVYITDKTVLDMRSMDFKSNSAVAWSNKSDFACANAFNNSIIPEDTFFPSSDVPCDVKLVEKSFETDTNLNFQNLLVIVLRILLLKVAGFNLLMTLRLWSS |
|  | ~3 |  | engineered dual-targeting TCR (VHH-TCR): MAGEA4-reactive, HLA-A2-restricted TCR embedded with a VHH targeting human CD33; TRB-P2A-CD33.VHH-mLNK-TRA (SEQ ID NO: … (TCR) TCR beta: DSGVTQTPKHLITATGQRVTLRCSPRSGDLSVYWYQQSLDQGLQFLIQYYNGEERAKGNILERFSAQQFPDLHSELNLSSLELGDSALYFCASSGGDGDEQFFGPGTRLTVLEDLKNVFPPEVAVFEPSKAEIAHTQKATLVCLATGFYPDHVELSWWVNGKEVHSGVSTDPQPLKEQPALNDSRYCLSSRLRVSATFWQNPRNHFRCQVQFYGLSENDEWTQDRAKPVTQIVSAEAWGRADCGITSASYHQGVLSATILYEILLGKATLYAVLVSALVLMAMVKRKDSRG TCR alpha: EVQLVESGGGEVQPGGSLRLSCAASRSSGIDVMGWYRQAPGKERELVAEISGVGDTNYAASLADRFTVSRDNAKNTVYLQMSSLRAEDTAVYYCNAHSFLDLVGAWGQGTLVTVKPLEKTAQKITQTQPGMFVQEKEAVTLDCTYDTSDPSYGLFWYKQPSSGEMIFLIYQGSYDQQNATEGRYSLNFQKARKSANLVISASQLGDSAMYFCAMSGGYTGGFKTIFGAGTRLFVKANIQNPDPAVYQLRDSKSSDKSVCLFTDFDSQTNVSQSKDSDVYITDKTVLDMRSMDFKSNSAVAWSNKSDFACANAFNNSIIPEDTFFPSSDVPCDVKLVEKSFETDTNLNFQNLLVIVLRILLLKVAGFNLLMTLRLWSS |
|  |  | binds | MAGEA4-reactive, HLA-A2-restricted TCR embedded with tandem VHHs targeting human CD33 and CLL1; TRB-P2A-CLL1-CD33.VHH-mLNK.1xG4S-TRA (SEQ ID NO: 97) (TCR, also called CD33-CLL1-TCR; CD33-CLL1 TCR) TCR beta: DSGVTQTPKHLITATGQRVTLRCSPRSGDLSVYWYQQSLDQGLQFLIQYYNGEERAKGNILERFSAQQFPDLHSELNLSSLELGDSALYFCASSGGDGDEQFFGPGTRLTVLEDLKNVFPPEVAVFEPSKAEIAHTQKATLVCLATGFYPDHVELSWWVNGKEVHSGVSTDPQPLKEQPALNDSRYCLSSRLRVSATFWQNPRNHFRCQVQFYGLSENDEWTQDRAKPVTQIVSAEAWGRADCGITSASYHQGVLSATILYEILLGKATLYAVLVSALVLMAMVKRKDSRG TCR alpha: EVQLVESGGGEVQPGGSLRLSCAASGFLFSIYDMNWYRQAPGKEREWVAGITNNGYSTAYAESVKGRFTISRDNAKNTIYLQMSSLRAEDTAVYYCHADLTKAYDVEYAWGQGTLVTVKPGGGGSGGGGSEVQLVESGGGEVQPGGSLRLSCAASRSSGIDVMGWYRQAPGKERELVAEISGVGDTNYAASLADRFTVSRDNAKNTVYLQMSSLRAEDTAVYYCNAHSFLDLVGAWGQGTLVTVKPLEKTGGGGSAQKITQTQPGMFVQEKEAVTLDCTYDTSDPSYGLFWYKQPSSGEMIFLIYQGSYDQQNATEGRYSLNFQKARKSANLVISASQLGDSAMYFCAMSGGYTGGFKTIFGAGTRLFVKANIQNPDPAVYQLRDSKSSDKSVCLFTDFDSQTNVSQSKDSDVYITDKTVLDMRSMDFKSNSAVAWSNKSDFACANAFNNSIIPEDTFFPSSDVPCDVKLVEKSFETDTNLNFQNLLVIVLRILLLKVAGFNLLMTLRLWSS |

The remaining lines, values behind:

| Binder | interferon gamma production [1] [fold] | interferon gamma production [2] [fold] | binding result [3] |
| --- | --- | --- | --- |
| VHH-TCR with a VHH added to the TRA separated by a mu linker (LEKT)+G4S; TRB-P2A-CD33.VHH-mLNK.1xG4S-TRA (SEQ ID NO: 94) (TCR) TCR beta: DSGVTQTPKHLITATGQRVTLRCSPRSGDLSVYWYQQSLDQGLQFLIQYYNGEERAKGNILERFSAQQFPDLHSELNLSSLELGDSALYFCASSGGDGDEQFFGPGTRLTVLEDLKNVFPPEVAVFEPSKAEIAHTQKATLVCLATGFYPDHVELSWWVNGKEVHSGVSTDPQPLKEQPALNDSRYCLSSRLRVSATFWQNPRNHFRCQVQFYGLSENDEWTQDRAKPVTQIVSAEAWGRADCGITSASYHQGVLSATILYEILLGKATLYAVLVSALVLMAMVKRKDSRG TCR alpha: EVQLVESGGGEVQPGGSLRLSCAASRSSGIDVMGWYRQAPGKERELVAEISGVGDTNYAASLADRFTVSRDNAKNTVYLQMSSLRAEDTAVYYCNAHSFLDLVGAWGQGTLVTVKPLEKTGGGGSAQKITQTQPGMFVQEKEAVTLDCTYDTSDPSYGLFWYKQPSSGEMIFLIYQGSYDQQNATEGRYSLNFQKARKSANLVISASQLGDSAMYFCAMSGGYTGGFKTIFGAGTRLFVKANIQNPDPAVYQLRDSKSSDKSVCLFTDFDSQTNVSQSKDSDVYITDKTVLDMRSMDFKSNSAVAWSNKSDFACANAFNNSIIPEDTFFPSSDVPCDVKLVEKSFETDTNLNFQNLLVIVLRILLLKVAGFNLLMTLRLWSS | > 2 | ~3 |  |
| VHH-TCR with a VHH added to the TRA separated by a 2xG4S; TRB-P2A-CD33.VHH-2xG4S-TRA (SEQ ID NO: 96) (TCR, also called VHH-TCR with 2G4S; VHH-TCR with two G4Ss) TCR beta: DSGVTQTPKHLITATGQRVTLRCSPRSGDLSVYWYQQSLDQGLQFLIQYYNGEERAKGNILERFSAQQFPDLHSELNLSSLELGDSALYFCASSGGDGDEQFFGPGTRLTVLEDLKNVFPPEVAVFEPSKAEIAHTQKATLVCLATGFYPDHVELSWWVNGKEVHSGVSTDPQPLKEQPALNDSRYCLSSRLRVSATFWQNPRNHFRCQVQFYGLSENDEWTQDRAKPVTQIVSAEAWGRADCGITSASYHQGVLSATILYEILLGKATLYAVLVSALVLMAMVKRKDSRG TCR alpha: EVQLVESGGGEVQPGGSLRLSCAASRSSGIDVMGWYRQAPGKERELVAEISGVGDTNYAASLADRFTVSRDNAKNTVYLQMSSLRAEDTAVYYCNAHSFLDLVGAWGQGTLVTVKPGGGGSGGGGSAQKITQTQPGMFVQEKEAVTLDCTYDTSDPSYGLFWYKQPSSGEMIFLIYQGSYDQQNATEGRYSLNFQKARKSANLVISASQLGDSAMYFCAMSGGYTGGFKTIFGAGTRLFVKANIQNPDPAVYQLRDSKSSDKSVCLFTDFDSQTNVSQSKDSDVYITDKTVLDMRSMDFKSNSAVAWSNKSDFACANAFNNSIIPEDTFFPSSDVPCDVKLVEKSFETDTNLNFQNLLVIVLRILLLKVAGFNLLMTLRLWSS |  |  | binds |
| VHH-TCR with a VHH added to the TRB separated by a marsupial mu linker (LEKT); CD33.VHH-mLNK-TRB-P2A-TRA (SEQ ID NO: 91) (TCR) TCR beta: EVQLVESGGGEVQPGGSLRLSCAASRSSGIDVMGWYRQAPGKERELVAEISGVGDTNYAASLADRFTVSRDNAKNTVYLQMSSLRAEDTAVYYCNAHSFLDLVGAWGQGTLVTVKPLEKTDSGVTQTPKHLITATGQRVTLRCSPRSGDLSVYWYQQSLDQGLQFLIQYYNGEERAKGNILERFSAQQFPDLHSELNLSSLELGDSALYFCASSGGDGDEQFFGPGTRLTVLEDLKNVFPPEVAVFEPSKAEIAHTQKATLVCLATGFYPDHVELSWWVNGKEVHSGVSTDPQPLKEQPALNDSRYCLSSRLRVSATFWQNPRNHFRCQVQFYGLSENDEWTQDRAKPVTQIVSAEAWGRADCGITSASYHQGVLSATILYEILLGKATLYAVLVSALVLMAMVKRKDSRG TCR alpha: AQKITQTQPGMFVQEKEAVTLDCTYDTSDPSYGLFWYKQPSSGEMIFLIYQGSYDQQNATEGRYSLNFQKARKSANLVISASQLGDSAMYFCAMSGGYTGGFKTIFGAGTRLFVKANIQNPDPAVYQLRDSKSSDKSVCLFTDFDSQTNVSQSKDSDVYITDKTVLDMRSMDFKSNSAVAWSNKSDFACANAFNNSIIPEDTFFPSSDVPCDVKLVEKSFETDTNLNFQNLLVIVLRILLLKVAGFNLLMTLRLWSS | > 2 |  |  |
| VHH-TCR with a VHH added to the TRB separated by a mu linker+G4S; CD33.VHH-mLNK.1xG4S-TRB-P2A-TRA (SEQ ID NO: 92) (TCR) TCR beta: EVQLVESGGGEVQPGGSLRLSCAASRSSGIDVMGWYRQAPGKERELVAEISGVGDTNYAASLADRFTVSRDNAKNTVYLQMSSLRAEDTAVYYCNAHSFLDLVGAWGQGTLVTVKPLEKTGGGGSDSGVTQTPKHLITATGQRVTLRCSPRSGDLSVYWYQQSLDQGLQFLIQYYNGEERAKGNILERFSAQQFPDLHSELNLSSLELGDSALYFCASSGGDGDEQFFGPGTRLTVLEDLKNVFPPEVAVFEPSKAEIAHTQKATLVCLATGFYPDHVELSWWVNGKEVHSGVSTDPQPLKEQPALNDSRYCLSSRLRVSATFWQNPRNHFRCQVQFYGLSENDEWTQDRAKPVTQIVSAEAWGRADCGITSASYHQGVLSATILYEILLGKATLYAVLVSALVLMAMVKRKDSRG TCR alpha: AQKITQTQPGMFVQEKEAVTLDCTYDTSDPSYGLFWYKQPSSGEMIFLIYQGSYDQQNATEGRYSLNFQKARKSANLVISASQLGDSAMYFCAMSGGYTGGFKTIFGAGTRLFVKANIQNPDPAVYQLRDSKSSDKSVCLFTDFDSQTNVSQSKDSDVYITDKTVLDMRSMDFKSNSAVAWSNKSDFACANAFNNSIIPEDTFFPSSDVPCDVKLVEKSFETDTNLNFQNLLVIVLRILLLKVAGFNLLMTLRLWSS | > 2 |  |  |

— patent US20240342215A1 (Regeneron, published 2024)
